Sequences and labels used below:
B4: LC3C (for BLI) (natural protein, human, UniProt Q9BXW4 1-126, looked up)
chain: MPPPQKIPSVRPFKQRKSLAIRQEEVAGIRAKFPNKIPVVVERYPRETFLPPLDKTKFLVPQELTMTQFLSIIRSRMVLRATEAFYLLVNNKSLVSMSATMAEIYRDYKDEDGFVYMTYASQETFG
notes: human LC3C in the pAL plasmid (GST, 3C site)
B5: GABARAP (for BLI) (natural protein, human, UniProt O95166 1-117, looked up)
chain: MKFVYKEEHPFEKRRSEGEKIRKKYPDRVPVIVEKAPKARIGDLDKKKYLVPSDLTVGQFYFLIRKRIHLRAEDALFFFVNNVIPPTSATMGQLYQEHHEEDFFLYIAYSDESVYGL
notes: human GABARAP in the pAL plasmid (GST, 3C site)

Assay in all cases: BLI; biotinylated LIR peptide immobilized on streptavidin biosensor, ATG8 in solution; 25 mM Tris pH 7.5, 150 mM NaCl, 0.5 mM TCEP, 0.1% Tween20, 1 mg/ml BSA; 25 °C; Kd from response against concentration
Common to all, as to conditions: both partners purified
(In general: In BLI a coated tip is dipped into the sample, and binding shifts an interference pattern.)

Assay [1] concerns the target B4.
Assay [2] has as its target T1, LC3A (for BLI) (human, UniProt Q9H492 1-121).
T1 construct: human LC3A in the pAL plasmid (GST, 3C site)

The target of assay [3] is B5.
The target in assay [4] is T2, GABARAPL1 (for BLI) (human, UniProt Q9H0R8 1-117).
T2 construct: human GABARAPL1 in the pAL plasmid (GST, 3C site)

The target in assay [5] is LC3B (for BLI) (human, UniProt Q9GZQ8 1-120).
Assay [6] deals with T3, GABARAPL2 (for BLI) (human, UniProt P60520 1-117).
T3 construct: human GABARAPL2 in the pAL plasmid (GST, 3C site)

Assay [7] has as its target T4, SCOC pS12/pT15 LIR peptide (human, phosphoserine at 12; phosphothreonine at 15; biotin-linker on the N-terminus; C-terminal amide).
T4 construct: SCOC isoform 3 aa 6-25; also called S12/T15^SCOC; source: synthetic peptide
T4 peptide: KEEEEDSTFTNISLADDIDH

The target in assay [8] is T5, SCOC aa 6–18 LIR peptide (human, reading uncertain).
T5 construct: SCOC isoform 3 aa 6-18; source: synthetic peptide
T5 peptide: {Biotin-linker}-KEEEEDSTFTNIS-NH2

Assay [9] addresses T6, SCOC aa 11–25 LIR peptide (human, reading uncertain).
T6 construct: SCOC isoform 3 aa 11-25; also called SCOC LIR motif (aa 11–25); source: synthetic peptide
T6 peptide: {Biotin-linker}-DSTFTNISLADDIDH-NH2

For assay [10], the target named is T7, SCOC pS12 LIR peptide (human, phosphoserine at 12; biotin-linker on the N-terminus; C-terminal amide).
T7 construct: SCOC isoform 3 aa 6-25; source: synthetic peptide
T7 peptide: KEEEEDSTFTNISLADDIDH

The values that follow come from article PMC8202330, “Phosphorylation of the LIR Domain of SCOC Modulates ATG8 Binding Affinity and Specificity” (Journal of Molecular Biology, 2021).

Non-standard residues stand in square brackets, D forms with d. *: point of attachment. Biotin = O=C1N[C@H]2[C@H](CS[C@H]2CCCCC(=O)*)N1; pS = N[C@@H](COP(=O)(O)O)C(=O)O; linker = not defined here

T3 sequence (P60520 whole entry): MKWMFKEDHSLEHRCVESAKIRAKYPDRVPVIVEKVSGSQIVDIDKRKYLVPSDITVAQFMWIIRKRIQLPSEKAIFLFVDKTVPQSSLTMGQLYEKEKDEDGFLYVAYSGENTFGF

B1: SCOC aa 6–20/pS18 LIR peptide (peptide)
peptide: {Biotin-linker}-KEEEEDSTFTNI[pS]LA-NH2
modifications: reading uncertain
notes: SCOC isoform 3 aa 6-20; source: synthetic peptide
In the case of B1, the binding result in assay [1], in assay [2], in [3] and in assay [4] was “binds” in each case.

B2: SCOC WT (aa 6–25) LIR peptide (peptide)
peptide: {Biotin-linker}-KEEEEDSTFTNISLADDIDH-NH2
modifications: reading uncertain
notes: SCOC isoform 3 aa 6-25; also called SCOC (WT) LIR domain peptide; SCOC LIR; source: synthetic peptide
As to B2, the dissociation constant (Kd) turned out to be 8.7 µM in assay [1]; 27.8 µM in assay [2]; 3.6 µM in assay [3]; 2.3 µM in assay [4]; 270 µM in assay [5]; 44.4 µM in assay [6].

B3: SCOC aa 6–20 LIR peptide (peptide)
peptide: {Biotin-linker}-KEEEEDSTFTNISLA-NH2
modifications: reading uncertain
notes: SCOC isoform 3 aa 6-20; also called SCOC LIR motif (aa 6–20); source: synthetic peptide
Regarding B3, the binding result in assay [1], in assay [3] and in [4] was “binds” each time.

As for B4, the “fold increase in affinity over SCOC WT LIR peptide” value in [7] came to 21 fold. For the same molecule, the results for the “fold decrease in affinity against SCOC WT LIR peptide” value in [8] and in assay [9] were 22 fold and 16 fold, respectively.

With B5, the figures for the “fold decrease in affinity against SCOC WT LIR peptide” value in assay [8] and in assay [9] were 4 fold and 37 fold, respectively. Besides, in assay [10], the “fold increase in affinity over SCOC WT LIR peptide” value amounted to 2 fold.

Usually Kd stands for the equilibrium constant for the complex coming apart. The low end stands for tighter binding, the high end for weaker binding.
